Source: the DeepSol protein solubility set

Assay: soluble on expression in E. coli; label from the status in PepcDB or PDB records

| Sequence | soluble on expression in E. coli |
| --- | --- |
| MPRINSPHITGNYPSTPFIFYIPTSGQRPMQWSAEKLPEGLELDSKTGIISGVMTSKGDYTVTLKAENALGVSVKQLVIRIGDELLLEHHHHHH | not soluble |
| MGSDKIHHHHHHTEDTFWKDETDFNLALTSCYTPLKNALNGGYYGTRGVMLRIARADEVDFRNDISDVYTVNRFTNSNTNSLTQGMFYQFYNALYRTNSIMQKLEEKKEQFSTDFQNSVKGECLFIRGFYLFQLAKEFKDAPLRLTASQSPSTFPLAKSSQADIWAQAKEDLKTAASLLPITNKIGKPTQGAAYAALGKIYVYEENWQEAINVLEPLTQNPYTYKLVEDFNWNFDDTHENNAESIFELLIEDVGGTDLWGDGENINSTQSNTRPKEYAAAEVGGWYEANPTQQIMDIFWKEKDKDGNFDYRARCSVAWDYEGCTYYQRPFREVFAQDKWKTYWILKYQNWKTQKDEPAPPKSFINERAIRYADVLLMLAEAYMNKGALDTSIGYINQIRRRANLNDYSGPITKEGVFEDLVHQRAIEFFVEGERFYDLRRWGLLEQTLKTCDDTRYKNYQTGKSDNINKFNYFPIPAKELDTNPLCTPSEGW | not soluble |
| MQEKQLKTIQNKIASWIKEIESAFIDELFSKIGPSKMLRSKLMLALLNEKTDAILLDKAFNLCAIVEMIQTASLLHDDVIDKAAMRRKLPSINALFGNFNAVMLGDVFYSKAFFELSKMGESIAKSLSNAVLRLSRGEIEDVFVGGSFNSDKQKYWRILEDKTAHFIEASLKSMAILLNKDAKMYADFGLNFGMAFQIIDDLLDITQDAKTLGKPNFSDFKEGKTTLPYLLLYEKLNQRDQGLLISYFKQDSHEIIEWTKEKFKQYGTIEETLKIAQVYSKKALEAIKGENNLILEKLAQDVIYRTF | not soluble |
| MVYYEIIKDIVFTYNLQFTHLIHNDRISEVNLGGVTMRSIITQICNGVLHGQSYQSGSNDLDKGNSEIFASSLFVHLNEQGKEIIKHKDSDDKIVIGYTKDGMAFQIVVDGFYGCERQAVFSFIDNYVLPLIDNFSLDLTRYPDSKKVTESLIHTIYSLRSKHAPLAEFTMSLCVTYQKDEQLFCAGFGIGDTGIAIKRNEGTIEQLVCHTEVDGFKDAFDNYSSANIDLVIERNSVFNTKVMPGDELVGYTYVPPMLEMTEKEFEVETVDGKKINKRIVRHLNLDPGNFDDKDPLFSQLLQVVKSKQKQLVEQAKETGQIQRFGDDFTVGRLVIPDQLLINQLRIHALSIGVSDGLLSYIKNENENKGFLGIYGFFTGADKNIEKATLYKNLIAKYQNNHFISLIILSALVSDSKTPLMTQYLVGYLDFPSKALLANKITELLLKELENPDMREILGSRLATDVIEELETKIIRYIHNPAGSDIHSTLNLWTADKIKAATNSSLTI | not soluble |
| MNYFGKLQIRFSKSFLLLLIVSSLTACVDLTGARNTYIKKEKQPAISDVPNKKSKAQNMSSKKGEVHTMLGGLGIFSKGMYTLRDKVSEKYHITAHSTMWYNAGAVSRYIIDHYYQEKDHKPIILVGHSLGANEQIKVARNLNAAGVPVALLVTVDAVSQTIVPPNVKQALNVYKPGFVPMFSGLKLRAVDPQLTKIDNINVDSIKGIKVNHFTIDKDEILQAMIMDKVDKVLVDGNKKGA | not soluble |
| HSSGLVPRGSHMSQERILDGEEDEINHKIFDLKRTLKDNLPLDRDFIDRLKRYFKDPSDQVLALRELLNEKDLTAEQVELLTKIINEIISGSEKSVNAGINSAIQAKLFGNKMKLEPQLLRACYRGFIMGNISTTDQYIEWLGNFGFNHRHTIVNFVEQSLIVDMDSEKPSCNAYEFGFVLSKLIAIKMIRTSDVIFMKKLESSSLLKDGSLSAEQLLLTLLYIFQYPSESEQILTSVIEVSRASHEDSVVYQTYLSSVNESPHDIFKSESEREIAINILRELVTSAYKKELSR | soluble |
| GPGSSLMFSRPPSKLSGAPTREDLDEIIAEEVREWVAKMVGVKHNADVWSMPNFVDALRSGVLLHVLLQKMESPPVSDEDLKLPKRTTGFFVRDNVATFLTTAKSRYDLVDAQLFTVSDLVDGKNDRQVVTCLMSIARIAYSAGAIK | not soluble |
| MDIKAQLKQIQDKGLYRELQPIQSVEKQYIYINDQSYINFTSNDYLGIGQLEYQPQNFLDFIKTYSIHLSSSRLVSGNSVVYQQLEQAISEHFNFEDALIFNSGYDANLAVFNIFKNNNVVIFSDQQNHASIIDGIKLSGLSKVIYQHLNYDDLESHLAQDTHLDVQKVIVSDSVFSTNGTKADINRLVHLKQRYNAILIIDASHSLGLNLFEYHADIDIVTSSLSKAWGAHGGIIFSSKDIKDLIINKGRSLIYSSSLPSYHLYFIQVSLQHVIEDTYRREKLNALSEYFNHQFMELFPNQPLSNTPIKNIVCDSLASAQAQYDMLFEHGIFVSYLRYPTVSQPTLRISLSYFHDTDDIDRLFNVMKQYDEGDSYV | not soluble |
| PVNQKSKRSELSQRRIRRPFSVAEVEALVEAVEHLGTGRWRDVKMRAFDNADHRTYVDLKDKWKTLVHTASIAPQQRRGEPVPQDLLDRVLAAHAYWSQQQGKQHVEPLKILDAKAQKVGA | soluble |
| MGSDKIHHHHHHMNEQWFLLGDIHGSAQPVHYFYQKNKERLSLDSSENFMILLGDVGANFALTGQRDHKFKSELSKLPFTFICLRGNHEARVKTVMDKNPDGWETISKYDGSIFVEKEFPYIEYLADGPAVYNFKSYKTLSLPGAYSVDKYYRQARHLTWYKDEQLNEKEMELGRKLCRNEAPFDLVLSHTCPYLYEPTDLFLAGLDQSTVDSTMERYLGEIEFNLDYKRWAFGHFHADRLYPWADGRQMLMLFNENVVNLDKFMNMTEKQSFKDIIA | not soluble |
| MGSDKIHHHHHHYRPLFDKDLSNADYDSSVWTFKNGILTATADQSIWTKVQYENFILDLEFKTDVNTNSGVVIYCTDKGNWIPSSIEIQIADDHHPEWQSYPEYWRCGSIYGHKGANEQLVVKKPGEWNRMIITAKGQQIDIELNGKHIVSANLADWTSGTTNPDGTEIPEWLPIPYANMPTKGYIGLQGKHGESNIWFRNIQLKQL | not soluble |
| MNVTPWEVEGVIDYSKLIEEFGMQPFSEVLPEIDNPHILMRRGAIFGHRDYWRIIEAMQKKEPWAVMSGFMPSGLPHFGHKMTMDEIVWHQSAGGKAFVAIADMEAHSVRGLSWEKTRELGMLYIKSIIALGLREDAVIYFQSKSSHVKDLAFELSAEVNFSELRAIYGFNSDTSLAKMFVTAIQAADILHPQLSDFGGPKPVVVPVGADQDPHMRLTRDLAARISIFSFEPVEGGVRVRSRKGAEYLSSLRDLEFDKKIYEEHMDIFGEAEEIERAVRKIEVEIGGFAFIPPSSTYHRFTTGLTGGKMSSSKPESYISLLDPPEEGAKKVMKAFTGGRATAEEQRRLGGEPDRCVVFELYSFHLIDSDEELNQIEAECREGRLLCGKCKKMAAELVKSFLKEHQEKMEAVDLSNYTIIG | not soluble |
| MSLKLHKGIKEYECKECHRRFAQKVNMLKHCKRHTGIKDFMCELCGKTFSERNTMETHKLIHTVGKQWTCSVCDKKYVTEYMLQKHVQLTHDKVEAQSCQLCGTKVSTRASMSRHMRRKHPEVLAVRIDEGHHHHHH | soluble |
| KNNPDPTIYPVLDWNDIKFQDVIGEGNFGQVLKARIKKDGLRMDAAIKRMKEYASKDDHRDFAGELEVLCKLGHHPNIINLLGACEHRGYLYLAIEYAPHGNLLDFLRKSRVLETDPAFAIANSTASTLSSQQLLHFAADVARGMDYLSQKQFIHRDLAARNILVGENYVAKIADFGLSRGQEVYVKKTMGRLPVRWMAIESLNYSVYTTNSDVWSYGVLLWEIVSLGGTPYCGMTCAELYEKLPQGYRLEKPLNCDDEVYDLMRQCWREKPYERPSFAQILVSLNRMLEERKTYVNTTLYEKFTYAGIDCSAEEAA | soluble |
| MSDVMADRTPPHNIEAEQAVLGAILIDQDALTSASELLVPDSFYRTKHQKIFEVMLGLSDKGEPIDLVMMTSAMADQGLLEEVGGVSYLAELAEVVPTAANVEYYARIIAEKALLRRLIRTATHIVSDGYEREDDVDGLLNEAEKKILEVSHQTNAKAFQNIKDVLVDAYDKIELLHNQKGEVTGIPTGFTELDKMTAGFQRNDLIIVAARPSVGKTAFSLNIAQNVATKTDENVAIFSLEMGADQLVMRMLCAEGNIDAQRLRTGSLTSDDWAKLTMAMGSLSNAGIYIDDTPGIKVNEIRAKCRRLKQEQGLGMILIDYLQLIQGSGKSGENRQQEVSEISRTLKGIARELQVPVIALSQLSRGVESRQDKRPMMSDIRESGSIEQDADIVAFLYREDYYDRETENKNTIEIIIAKQRNGPVGSVELAFVKEFNKFVNLERRFEDGHAPPA | not soluble |
| MSLASDPFEAPIPGLHACIDPIAVAHNLEVLRQRLGVGVDGPRIWATVKADAYGHGLHNVLPGLRAADGIAVRHLHEAHQCRRVGWSGPIMVYAGLTHEREAALLTLQQLHLVITDMTQLEWLPGKPLYSCAPWIWLRYIGATRLGGLDASEYRRAYARCRELQQHGALRGVGHLNHYANAASVGDLEREHADFEACIRGLPGPVSTCNSAAACVLPTMAARTDWVRPGLALYGVSPIPGREGHHHHHH | not soluble |
| MTNKQVEISMAEWDVMNIIWDKKSVSANEIVVEIQKYKEVSDKTIRTLITRLYKKEIIKRYKSENIYFYSSNIKEDDIKMKTAKTFLNKLYGGDMKSLVLNFAKNEELNNKEIEELRDILNDISKK | soluble |
| MPKAVAVLFFLLFTSLSYAESAFDIVQKSDQAMRGKSSYSEATMEIVRPDWTRSMTMKSWTKGTELSLVLVTAPAKDKGSASLKRHREMWNWVPSIERVIKIAPSMLSQSWMGSDFTNDDLINQSSIVVDYQHALLGNDSFEGDKVWVIEATAKPDAPVVWNKVTLWISQSTYLQRKVEFYDEFDERVNVLTTYDVKELGGRKIATRMEMKPVDKPGNKTIFTTHQAQFDFDINDDFFSQQQMKSLRD | not soluble |
| MGSDKIHHHHHHMGRRSHSRSLSIWTNGVRVGRWTVPARGEMELQYDVDWVRADVGRPLSLSLPFNLQNLPLKGERVANYFDNLLPDSDAIRRRVAERFRTGSVDPFDLLKAIGRDCVGAVQILEDEEIPEGFDRIEGVPLSEEDIERHLIETVTPRAFAAGRDPDADFRISLAGAQEKTAFLWWGGQWLAPRGATSTSHIFKLPLGLVGGRRADFSTSVDNEWLCLKLLKAYGLDVAEASIATFGQQRVLVVERFDRRVAPNGQWLMRLPQEDFCQVEGCSPLRKYENEGGPGLKALFATLRQSVNAAVDMRTLMAAQILFWLLRAPDGHAKNFSIQLLPRGRFQLTRLYDVMSAYPVLGDGANQWSPFEIKLAMALIGKNRHYEMHGIQRRHFNSTAQKVGYGPTAEPIIEDLLARTPAIIAAVQADLPQDFSPRVADSVLGGLAQAAKSLGAMMP | not soluble |
| MGSDKIHHHHHHMTRSGIGIRTAQQQSGRLTGQIHVYDGAGKGKSQAALGVVLRSIGLGIRDQWQSRVLLLRFLKGPGRTYDEDAAIEALQQGFPHLIDQVRTGRAEFFGPDAISRFDRQEARRGWDIAKGAIVSGLYSVIVLDELNPILDLGLLPVDEVVQTLRQKPPQVEVIATGRGAPPQLLEIADLHSEMIAHANPAVAPVGMEGIEIYTGEGKGKSTSALGKALQAIGRGIGQDLSHRVLILQWLKGGSGYTEDAAIQALRQSYPHLVDHQRSGRDAIVWRGQQQEIDYIEAERAWEIARAAIASGLYKTIILDELNPTVDLELLPEEPILQALLRKPRDTEVIITGRCKQIPAYFHLASVHSEMVCHKHYAERGIELKRGVDY | not soluble |
| MSLAVLPDVPKSKDMKHRPRFLPSIGPMKKRVAFFSGCLMDTMFLPTNNATLKLLQLAGCDIVIPPEQACCGALHGHSGEKNTGKELAKQNIAAFEALDVDAVITNAGGCGAFLTEYDHLLKDDPEWSERAAAFVQKLKDFSSVLVELDFHQMDLALETPQVVTYQDSCHLRNVMHTSLEPRQLLKSIKGAEFKEMEKADSCCGSAGIYNIVEVEMSMKILDSKMAAVKATEAILIVTANPGCLLQMKLGIEREGLSGKVRAVHLADLLLEAAGHKTSEGHHHHHH | soluble |
